{
  "source": "patent EP3964526A1",
  "key": {"[1]": {"molecular_target": "membrane-bound TNFalpha on stably transfected CHO cells (B-220 cells)", "assay": "FACS, anti-CD19-APC beads with TNFalpha-transfected CHO cells (Fig. 4b)"}, "[2]": {"molecular_target": "membrane-bound TNFalpha on stably transfected CHO cells (B-220 cells)", "assay": "FACS, beads with CHO-TNFα (B220) cells, Sample 2"}},
  "data": [
    {"substance": "APC labeled unrelated antibody (anti-CD 19) (coated on beads)", "values": [
      {"measurement": "# Events (P4, CHO cells bound to anti-CD19 beads)", "setting": "[1]", "value": 6, "unit": "events"},
      {"measurement": "% Parent (P4, CHO cells bound to anti-CD19 beads)", "setting": "[1]", "value": 0.1, "unit": "%"},
      {"measurement": "% Total (P4, CHO cells bound to anti-CD19 beads)", "setting": "[1]", "value": 0.1, "unit": "%"},
      {"measurement": "% bound beads", "setting": "[2]", "value": 0.9, "unit": "%"}
    ]}
  ]
}
